Results from the supplement of paper PMC9233669.
This sample holds only a part of the variants without activity.

How the values were obtained:
biotinyl-Met-oxazolone = assay: self-aminoacylation, catalytic enhancement (BMO) (fold over background); higher = more active; k-Seq, kA / k0A0; sequences stand for … in GGGAAUGGAUCCACAUCUACGAAUUC…UUCACUGCAGACUUGACGAAGCUG
Procedure, shortened: (§1)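 Catalytic enhancement equals the median kA over the uncatalyzed rate, the latter read from the low-activity peak of a bimodal Gaussian fit. Values of kA came from fitting each sequence's fraction reacted to a pseudo-first-order model, with 1000 bootstraps. Reacted RNA was captured with streptavidin and quantified by triplicate qPCR and Illumina sequencing after 90 minutes at room temperature with 2–1250 μM biotinyl-aminoacyl-oxazolone and 0.43 μM mutagenized RNA pools bearing a 21-nt variable region.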

biotinyl-Leu-oxazolone = assay: self-aminoacylation, catalytic enhancement (BLO) (fold over background); higher = more active; k-Seq, kA / k0A0; sequences stand for … in GGGAAUGGAUCCACAUCUACGAAUUC…UUCACUGCAGACUUGACGAAGCUG
Procedure, shortened: as §1

biotinyl-Val-oxazolone = assay: self-aminoacylation, catalytic enhancement (BVO) (fold over background); higher = more active; k-Seq, kA / k0A0; sequences stand for … in GGGAAUGGAUCCACAUCUACGAAUUC…UUCACUGCAGACUUGACGAAGCUG
Procedure, shortened: as §1

biotinyl-Phe-oxazolone = assay: self-aminoacylation, catalytic enhancement (BFO) (fold over background); higher = more active; k-Seq, kA / k0A0; sequences stand for … in GGGAAUGGAUCCACAUCUACGAAUUC…UUCACUGCAGACUUGACGAAGCUG
Procedure, shortened: as §1

biotinyl-Ile-oxazolone = assay: self-aminoacylation, catalytic enhancement (BIO) (fold over background); higher = more active; k-Seq, kA / k0A0; sequences stand for … in GGGAAUGGAUCCACAUCUACGAAUUC…UUCACUGCAGACUUGACGAAGCUG
Procedure, shortened: as §1

biotinyl-Trp-oxazolone = assay: self-aminoacylation, catalytic enhancement (BWO) (fold over background); higher = more active; k-Seq, kA / k0A0; sequences stand for … in GGGAAUGGAUCCACAUCUACGAAUUC…UUCACUGCAGACUUGACGAAGCUG
Procedure, shortened: as §1

| Sequence | self-aminoacylation (biotinyl-Met-oxazolone) | self-aminoacylation (biotinyl-Leu-oxazolone) | self-aminoacylation (biotinyl-Val-oxazolone) | self-aminoacylation (biotinyl-Phe-oxazolone) | self-aminoacylation (biotinyl-Ile-oxazolone) | self-aminoacylation (biotinyl-Trp-oxazolone) |
| --- | --- | --- | --- | --- | --- | --- |
| AUUACCCUGGUCAUCGAGUAA [Fam2.1 aminoacylation ribozyme variant] | 28.9 | 26.7 | 10.1 | 118 | 8.7 | 25.3 |
| AUUACCCUGGUCAUCGAGUAG [Fam2.1 aminoacylation ribozyme variant] | 4.51 | 4.67 | 2.64 | 13.9 | 2.15 | 4.18 |
| AUUACCCUGGUCAUCGAUUGU [Fam2.1 aminoacylation ribozyme variant] | 0.73 | 0.736 | 0.785 | 0.73 | 0.753 | 0.386 |
| AUUACCCUGGUCAUCGCAUGA [Fam2.1 aminoacylation ribozyme variant] | 3.2 | 3.5 | 1.75 | 13.8 | 2.01 | 3.77 |
| AUUACCCUGGUCAUCGCGUGG [Fam2.1 aminoacylation ribozyme variant] | 3.88 | 6.77 | 3.14 | 35.6 | 2.8 | 5.28 |
| AUUACCCUGGUCAUCGGGAGA [Fam2.1 aminoacylation ribozyme variant] | 2.97 | 4.4 | 2.41 | 2.87 | 1.71 | 5.01 |
| AUUACCCUGGUCAUCGGGUCA [Fam2.1 aminoacylation ribozyme variant] | 5.33 | 6.66 | 4.01 | 22.5 | 3.61 | 9.71 |
| AUUACCCUGGUCAUCGUGAGA [Fam2.1 aminoacylation ribozyme variant] | 0.897 | 0.777 | 0.789 | 0.858 | 0.703 | 0.867 |
| AUUACCCUGGUCAUCUAGUAA [Fam2.1 aminoacylation ribozyme variant] | 1.06 | 1.15 | 1.08 | 1.32 | 1.1 | 0.903 |
| AUUACCCUGGUCAUCUGGUGA [Fam2.1 aminoacylation ribozyme variant] | 5 | 5.37 | 2.72 | 31.1 | 3.08 | 4.53 |
| AUUACCCUGGUCAUGGAGUGA [Fam2.1 aminoacylation ribozyme variant] | 4.69 | 4.95 | 3.02 | 19.7 | 3.07 | 5.8 |
| AUUACCCUGGUCAUGGAGUGC [Fam2.1 aminoacylation ribozyme variant] | 0.858 | 1.24 | 1.17 | 0.89 | 1.05 | 0.556 |
| AUUACCCUGGUCAUGGAGUGU [Fam2.1 aminoacylation ribozyme variant] | 2.46 | 2.73 | 1.98 | 3.83 | 1.72 | 2.57 |
| AUUACCCUGGUCAUGGAGUUA [Fam2.1 aminoacylation ribozyme variant] | 1.23 | 0.899 | 1.13 | 0.664 | 1.04 | 0.695 |
| AUUACCCUGGUCAUGGGGUGA [Fam2.1 aminoacylation ribozyme variant] | 8.63 | 10.1 | 4.17 | 66.9 | 4.02 | 9.45 |
| AUUACCCUGGUCAUGUAGUGA [Fam2.1 aminoacylation ribozyme variant] | 1.97 | 2 | 1.81 | 4.73 | 1.77 | 2.4 |
| AUUACCCUGGUCAUUGAGUGA [Fam2.1 aminoacylation ribozyme variant] | 9.01 | 8.58 | 4.49 | 44.1 | 4.27 | 10.8 |
| AUUACCCUGGUCAUUGAGUGC [Fam2.1 aminoacylation ribozyme variant] | 0.995 | 1.15 | 0.993 | 1.08 | 0.962 | 0.798 |
| AUUACCCUGGUCAUUGGGUGA [Fam2.1 aminoacylation ribozyme variant] | 12.1 | 13.1 | 5.6 | 93.4 | 5.58 | 12.9 |
| AUUACCCUGGUCCUAGAGUGA [Fam2.1 aminoacylation ribozyme variant] | 9.27 | 9.4 | 4.85 | 45.8 | 4.03 | 10.8 |
| AUUACCCUGGUCCUCGAGAGA [Fam2.1 aminoacylation ribozyme variant] | 0.757 | 1.32 | 1.28 | 0.376 | 0.884 | 0.889 |
| AUUACCCUGGUCCUCGAGCGA [Fam2.1 aminoacylation ribozyme variant] | 1.97 | 1.25 | 1.77 | 3.24 | 1.46 | 1.68 |
